Holding throughout (experiment): BLI; Octet RED96; client biotinylated and loaded on streptavidin sensors; Spy or Spy variant in solution at 0.25, 0.5, 1, 1.5 and 2 μM; 40 mM HEPES, 150 mM NaCl, pH 7.5; Kd calculated as koff/kon
Holding throughout (conditions): both partners purified

The target of one experiment is T1, Spy_(24-127) (UniProt P77754 47-150).
T1 construct: Spy chaperone, residues 24-127; source: E. coli BL21 (DE3), purified (Ni-NTA, cation exchange, SEC); not shown: His6, N-terminal, cleaved; SUMO, N-terminal, cleaved
T1 sequence (looked up): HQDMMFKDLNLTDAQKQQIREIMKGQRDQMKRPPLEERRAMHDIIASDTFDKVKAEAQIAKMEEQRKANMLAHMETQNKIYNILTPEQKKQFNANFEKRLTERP
Put shortly: (§1)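 Client proteins were biotinylated with EZ-link NHS-biotin at a 1:1 molar ratio, loaded onto streptavidin sensors, and measured by biolayer interferometry on an Octet RED96. The loaded sensors were dipped into 40 mM HEPES, 150 mM NaCl, pH 7.5 holding the analyte protein at 0.25, 0.5, 1, 1.5 or 2 μM, then moved to buffer without it. Fitting the wavelength-shift association and dissociation curves in SigmaPlot 12.0 gave the observed association rate and koff, kon was taken from the observed rate plotted against analyte concentration, and Kd was calculated as koff/kon.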

Experiment [1] has as its target T2, Spy_(29-138) (UniProt P77754 52-161).
T2 construct: source: E. coli BL21 (DE3), purified (Ni-NTA, cation exchange, SEC); not shown: His6, N-terminal, cleaved; SUMO, N-terminal, cleaved
T2 sequence (looked up): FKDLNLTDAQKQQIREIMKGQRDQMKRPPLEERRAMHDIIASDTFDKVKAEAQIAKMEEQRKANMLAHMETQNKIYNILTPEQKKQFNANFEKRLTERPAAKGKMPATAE
An outline of the steps:
as §1

The target of the next experiment is T3, Spy_(27-124) (UniProt P77754 50-147).
T3 construct: source: E. coli BL21 (DE3), purified (Ni-NTA, cation exchange, SEC); not shown: His6, N-terminal, cleaved; SUMO, N-terminal, cleaved
T3 sequence (looked up): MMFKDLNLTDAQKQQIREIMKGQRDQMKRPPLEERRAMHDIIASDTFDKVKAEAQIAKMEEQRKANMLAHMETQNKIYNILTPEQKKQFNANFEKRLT
An outline of the steps:
as §1

The target in a further experiment is T4, Spy_(27-127) (UniProt P77754 50-150).
T4 construct: Spy chaperone, residues 27-127; source: E. coli BL21 (DE3), purified (Ni-NTA, cation exchange, SEC); not shown: His6, N-terminal, cleaved; SUMO, N-terminal, cleaved
T4 sequence (looked up): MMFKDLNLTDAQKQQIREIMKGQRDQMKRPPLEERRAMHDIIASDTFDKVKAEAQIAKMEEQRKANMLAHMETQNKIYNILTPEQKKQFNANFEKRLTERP
An outline of the steps:
as §1

For the next experiment, the target named is T5, Spy_(21-130) (UniProt P77754 44-153).
T5 construct: Spy chaperone, residues 21-130; source: E. coli BL21 (DE3), purified (Ni-NTA, cation exchange, SEC); not shown: His6, N-terminal, cleaved; SUMO, N-terminal, cleaved
T5 sequence (looked up): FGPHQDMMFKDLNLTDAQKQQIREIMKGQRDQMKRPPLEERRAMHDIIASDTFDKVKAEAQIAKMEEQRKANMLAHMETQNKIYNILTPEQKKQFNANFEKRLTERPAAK
Put shortly: as §1

The target in a further experiment is T6, Spy_(21-127) (UniProt P77754 44-150).
T6 construct: Spy chaperone, residues 21-127; source: E. coli BL21 (DE3), purified (Ni-NTA, cation exchange, SEC); not shown: His6, N-terminal, cleaved; SUMO, N-terminal, cleaved
T6 sequence (looked up): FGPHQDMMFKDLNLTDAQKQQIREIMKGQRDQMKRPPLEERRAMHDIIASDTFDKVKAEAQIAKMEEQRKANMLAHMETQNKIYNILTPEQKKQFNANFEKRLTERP
Put shortly:
as §1

The target of another experiment is T7, Spy_(24-124) (UniProt P77754 47-147).
T7 construct: source: E. coli BL21 (DE3), purified (Ni-NTA, cation exchange, SEC); not shown: His6, N-terminal, cleaved; SUMO, N-terminal, cleaved
T7 sequence (looked up): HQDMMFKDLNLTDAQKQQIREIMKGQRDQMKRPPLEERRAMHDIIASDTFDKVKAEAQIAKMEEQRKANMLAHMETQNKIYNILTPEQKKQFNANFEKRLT
Put shortly:
as §1

Experiment [2] deals with T2, Spy_(29-138). Put shortly:
as §1
The source holds these as a separate data set.

Another experiment concerns the target T8, Spy_(29-127) (UniProt P77754 52-150).
T8 construct: Spy chaperone, residues 29-127; source: E. coli BL21 (DE3), purified (Ni-NTA, cation exchange, SEC); not shown: His6, N-terminal, cleaved; SUMO, N-terminal, cleaved
T8 sequence (looked up): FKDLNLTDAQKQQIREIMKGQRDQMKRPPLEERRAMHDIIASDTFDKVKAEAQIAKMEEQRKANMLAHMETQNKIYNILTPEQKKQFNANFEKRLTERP
Put shortly:
as §1

B1: Im7 H40W L53A I54A (natural protein)
chain: MELKNSISDYTEAEFVQLLKEIEKENVAATDDVLDVLLEWFVKITEHPDGTDAAYYPSDNRDDSPEGIVKEIKEWRAANGKPGFKQG
modifications: biotin (EZ-link NHS-biotin, 1:1 molar ratio of biotin to protein)
notes: Im7 (colicin E7 immunity protein) with H40W L53A I54A; Spy was made with an N-terminal His6-SUMO tag that was cleaved; also called Im7AAW; partially folded client; source: purified by a similar procedure to Spy
For orientation: koff means the rate constant with which the complex falls apart. One may read the kon as a measure of how fast the partners come together. On to B1, for which the koff is 0.39 s⁻¹ with Spy_(24-127); 0.0893 s⁻¹ with Spy_(29-138) [1]; 0.089 s⁻¹ with Spy_(27-124); 0.0933 s⁻¹ with Spy_(27-127); 0.461 s⁻¹ with Spy_(21-130); 0.512 s⁻¹ with Spy_(21-127). In the experiment with Spy_(24-124), the koff is 0.423 s⁻¹. The values for the kon with Spy_(29-138) [2] and with Spy_(29-127) were 286000 M⁻¹ s⁻¹ and 309000 M⁻¹ s⁻¹, respectively.

The values above are taken from publication PMC9122904, “Insights into the client protein release mechanism of the ATP-independent chaperone Spy” (Nature Communications, 2022).
